Source: PMC5238595

Key:
[1] = molecular target: A47934 PCP-X di-domain construct with maltose binding protein as N-terminal fusion partner (Streptomyces toyocaensis)
[2] = molecular target: hybrid PCP-X construct: teicoplanin PCP-domain and A47934 X-domain, with MBP as N-terminal fusion partner (Actinoplanes teichomyceticus | Streptomyces toyocaensis)
[3] = molecular target: PCP-X construct from teicoplanin biosynthesis with MBP as N-terminal fusion partner (Actinoplanes teichomyceticus) (UniProt Q70AZ6)
[4] = molecular target: hybrid PCP-X construct: A47934 PCP-domain and teicoplanin X-domain, with MBP as N-terminal fusion partner (Streptomyces toyocaensis | Actinoplanes teichomyceticus) (UniProt Q70AZ6)

UniProt Q70AZ6, sequence (Q70AZ6 entry or part of it): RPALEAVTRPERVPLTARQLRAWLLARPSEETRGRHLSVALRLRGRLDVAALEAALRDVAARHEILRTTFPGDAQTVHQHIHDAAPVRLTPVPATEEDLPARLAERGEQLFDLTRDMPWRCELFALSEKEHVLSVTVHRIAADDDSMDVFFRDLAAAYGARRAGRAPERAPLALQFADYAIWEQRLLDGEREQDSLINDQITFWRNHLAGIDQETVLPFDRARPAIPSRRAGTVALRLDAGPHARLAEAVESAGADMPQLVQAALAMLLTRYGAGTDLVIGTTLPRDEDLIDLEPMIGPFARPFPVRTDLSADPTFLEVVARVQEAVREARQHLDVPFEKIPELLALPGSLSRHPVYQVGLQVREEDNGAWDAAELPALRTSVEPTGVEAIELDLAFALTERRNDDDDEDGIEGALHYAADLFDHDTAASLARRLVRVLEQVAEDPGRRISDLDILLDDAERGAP

StaF turnover activity (bicyclic product / sum of mono- and bicyclic product, HPLC-MS) on Act7-rac-Hpg7 bound to MBP-PCP-Xsta, with StaH (entry 4) [1]: 25.5%
StaF turnover activity (bicyclic product / sum of mono- and bicyclic product, HPLC-MS) on Tei7-L-Hpg7 bound to MBP-PCP-Xsta, with StaH (entry 1) [1]: 23.8%
StaF turnover activity (bicyclic product / sum of mono- and bicyclic product, HPLC-MS) on Act7-rac-Hpg7 bound to MBP-PCPtei-Xsta, with StaH (entry 16) [2]: 31.5%
StaF turnover activity (bicyclic product / sum of mono- and bicyclic product, HPLC-MS) on Tei7-L-Hpg7 bound to MBP-PCPtei-Xsta, with StaH (entry 13) [2]: 21.1%
StaF turnover activity (bicyclic product / sum of mono- and bicyclic product, HPLC-MS) on Act7-rac-Hpg7 bound to MBP-PCP-Xtei, with StaH (entry 8) [3]: 24.9%
StaF turnover activity (bicyclic product / sum of mono- and bicyclic product, HPLC-MS) on Tei7-L-Hpg7 bound to MBP-PCP-Xtei, with StaH (entry 5) [3]: 5.7%
StaF turnover activity (bicyclic product / sum of mono- and bicyclic product, HPLC-MS) on Act7-rac-Hpg7 bound to MBP-PCPsta-Xtei, with StaH (entry 12) [4]: 7.8%
StaF turnover activity (bicyclic product / sum of mono- and bicyclic product, HPLC-MS) on Tei7-L-Hpg7 bound to MBP-PCPsta-Xtei, with StaH (entry 9) [4]: 2.9%
Substance: StaF, the D-O-E ring forming Oxy enzyme (cytochrome P450) from A47934 biosynthesis
